Here are results for 61 sequences from the supplement of paper PMC11780869.

The test system of the data set is Bacillus subtilis. Briefly: cleaved RNA product abundance (RNA/gDNA barcode ratio) relative to median wild-type variant (ratio to wild type); higher = more accumulation of the downstream cleavage product. Conditions: experiment (reporter, strain, medium): exp 8a: truncated aprE reporter, strain BJT201 with 2% xylose (RNase J1 expressed); cleavage site: glnRA (positions -5 to +31 mutated). An outline of the steps: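 Reporter mRNAs based on truncated aprE or tetM carried barcoded, mutagenized RNase Y cleavage-site windows built from oligos with a 9% error rate and were integrated into the B. subtilis chromosome. Cultures grew in LB at 37°C from OD600 0.0003 to 0.3. Cleaved RNA was gel-selected, reverse transcribed and barcode-sequenced together with genomic DNA barcodes, and UMIs were collapsed. Cleaved product abundance is the per-construct ratio of RNA to gDNA barcodes, scaled to the median of constructs carrying the unmutated site.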
As for “CGACATGTCCCGCTTCTTTCATTAATCTGTTAGCAACTGTTTTGCTATATACTTTTACCTTTTAAGAGGAGGAAT”, the “cleaved RNA product abundance” value stood at 0.728.

As for “CGACATGTCCCGCTTCTTTCATTAATCTGTTAGCAACTGTTTTGCTATATAGATTTACCTTTTAAGAGGAGGAAT”, the “cleaved RNA product abundance” value was determined as 0.587.

In the case of “CGACATGTCCCGCTTCTTTCATTAATCTGTTAGCAACTGTTTTGCTATATCCATTTACCTTTTAAGAGGAGGAAT”, the “cleaved RNA product abundance” value came out at 0.263.

With “CGACATGTCCCGCTTCTTTCATTAATCTGTTAGCAACTGTTTTGCTTTATACATTTACCTTTTAAGAGGAGGAAT”, the “cleaved RNA product abundance” value came out at 0.247.

Consider “CGACATGTCCCGCTTCTTTCATTAATCTGTTAGCAACTGTTTTGGTATATACATTTACCTTTTAAGAGGAGGAAT”, for which the “cleaved RNA product abundance” value turned out to be 0.264.

Turning to “CGACATGTCCCGCTTCTTTCATTAATCTGTTAGCAACTGTTTTTCTATATACATTTACCTTTTAAGAGGAGGAAT”, the “cleaved RNA product abundance” value is 0.483.

“CGACATGTCCCGCTTCTTTCATTAATCTGTTAGCAACTTTTTTGCTATATACATTTACCTTTTAAGAGGAGGAAT”: the “cleaved RNA product abundance” value is 0.706.

For the sequence “CGACATGTCCCGCTTCTTTCATTAATCTGTTAGCAATTGTTTTGCTATATACATTTACCTTTTAAGAGGAGGAAT”, the “cleaved RNA product abundance” value amounted to 1.59.

Consider “CGACATGTCCCGCTTCTTTCATTAATCTGTTAGCTACTGTTTTGCTATATACATTTACCTTTTAAGAGGAGGAAT”, for which the “cleaved RNA product abundance” value worked out at 0.743.

As for “CGACATGTCCCGCTTCTTTCATTAATCTGTTAGGAACTGTTTTGCTATATACATTTACCTTTTAAGAGGAGGAAT”, the “cleaved RNA product abundance” value is 0.268.

For “CGACATGTCCCGCTTCTTTCATTAATCTGTTATCAACTGTTTTGCTATATACATTTACCTTTTAAGAGGAGGAAT”, the “cleaved RNA product abundance” value came out at 0.403.

For “CGACATGTCCCGCTTCTTTCATTAATCTGTTATCAATTGTTTTGCTATATACATTTACCTTTTAAGAGGAGGAAT”, the “cleaved RNA product abundance” value amounted to 0.383.

As to “CGACATGTCCCGCTTCTTTCATTAATCTTTTAGCAACTGTTTTACTATATACATTTACCTTTTAAGAGGAGGAAT”, the “cleaved RNA product abundance” value was 0.94.

Regarding “CGACATGTCCCGCTTCTTTCATTAATCTTTTAGCAACTGTTTTGCTATATACATTTACCTTTTAAGAGGAGGAAT”, the “cleaved RNA product abundance” value worked out at 1.14.

Turning to “CGACATGTCCCGCTTCTTTCATTAATGAGTTAGCAACTGTTTTGCTATATACATTTACCTTTTAAGAGGAGGAAT”, the “cleaved RNA product abundance” value is 1.18.

In the case of “CGACATGTCCCGCTTCTTTCATTAATGCGATAGCAACTGTTTTGCTATATACATTTACCTTTTAAGAGGAGGAAT”, the “cleaved RNA product abundance” value is 0.395.

As to “CGACATGTCCCGCTTCTTTCATTAATGCGTTAACAACTGTTTTGCTATATACATTTACCTTTTAAGAGGAGGAAT”, the “cleaved RNA product abundance” value came out at 0.228.

“CGACATGTCCCGCTTCTTTCATTAATGCGTTAGCAAATGTTTTGCTATATACATTTACCTTTTAAGAGGAGGAAT”: the “cleaved RNA product abundance” value stood at 0.927.

Take “CGACATGTCCCGCTTCTTTCATTAATGCGTTAGCAACTATTTTGCTATATACATTTACCTTTTAAGAGGAGGAAT”: the “cleaved RNA product abundance” value turned out to be 1.28.

In the case of “CGACATGTCCCGCTTCTTTCATTAATGCGTTAGCAACTGTGTTGCTATATACATTTACCTTTTAAGAGGAGGAAT”, the “cleaved RNA product abundance” value stood at 0.406.

With “CGACATGTCCCGCTTCTTTCATTAATGCGTTAGCAACTGTTTTACTATATACATTTACCTTTTAAGAGGAGGAAT”, the “cleaved RNA product abundance” value is 0.324.

As for “CGACATGTCCCGCTTCTTTCATTAATGCGTTAGCAACTGTTTTGCTATATACATTCACCTTTTAAGAGGAGGAAT”, the “cleaved RNA product abundance” value was found to be 0.329.

Turning to “CGACATGTCCCGCTTCTTTCATTAATGCGTTAGCAACTGTTTTGCTATATACATTTACATTTTAAGAGGAGGAAT”, the “cleaved RNA product abundance” value came to 0.652.

Regarding “CGACATGTCCCGCTTCTTTCATTAATGCGTTAGCAACTGTTTTGCTATATACATTTACCTTTTAAGAGGAGGAAT”, the “cleaved RNA product abundance” value amounted to 0.633.

With “CGACATGTCCCGCTTCTTTCATTAATGCGTTAGCAACTGTTTTGCTATATAGATTTACCCTTTAAGAGGAGGAAT”, the “cleaved RNA product abundance” value turned out to be 0.761.

Consider “CGACATGTCCCGCTTCTTTCATTAATGCGTTAGCAACTGTTTTGGTATATACATTTACCTTTTAAGAGGAGGAAT”, for which the “cleaved RNA product abundance” value was determined as 0.244.

With “CGACATGTCCCGCTTCTTTCATTAATGCGTTAGCAACTGTTTTTCTATATACATTTACCTTTTAAGAGGAGGAAT”, the “cleaved RNA product abundance” value turned out to be 0.479.

As to “CGACATGTCCCGCTTCTTTCATTAATGCGTTAGCAATTGTTTTGCTATATACATTTACCTTTTAAGAGGAGGAAT”, the “cleaved RNA product abundance” value is 0.995.

As for “CGACATGTCCCGCTTCTTTCATTAATGCTTTAGCAACTGTTTTGCTATATACATTTACCTTTTAAGAGGAGGAAT”, the “cleaved RNA product abundance” value was found to be 0.618.

For “CGACATGTCCCGCTTCTTTCATTAATTCATTAGCAACTGTTTTGCTATATACATTTACCTTTTAAGAGGAGGAAT”, the “cleaved RNA product abundance” value came to 0.776.

For the sequence “CGACATGTCCCGCTTCTTTCATTAATTCGTCAGCAACTGTTTTGCTATATACATTTACCTTTTAAGAGGAGGAAT”, the “cleaved RNA product abundance” value worked out at 0.639.

On to “CGACATGTCCCGCTTCTTTCATTAATTCGTTAACAACTGTTTTGCTATATACATTTACCTTTTAAGAGGAGGAAT”, for which the “cleaved RNA product abundance” value was 0.209.

For “CGACATGTCCCGCTTCTTTCATTAATTCGTTACCAACTGTTTTGCTATATACATTTACCTTTTAAGAGGAGGAAT”, the “cleaved RNA product abundance” value came to 0.231.

Consider “CGACATGTCCCGCTTCTTTCATTAATTCGTTAGAAACTGTTTTGCTATATACATTTACCTTTTAAGAGGAGGAAT”, for which the “cleaved RNA product abundance” value turned out to be 0.285.

With “CGACATGTCCCGCTTCTTTCATTAATTCGTTAGCAAATGTTTTGCAATATACATTTACCTTTTAAGAGGAGGAAT”, the “cleaved RNA product abundance” value was found to be 0.563.

“CGACATGTCCCGCTTCTTTCATTAATTCGTTAGCAAATGTTTTGCTATATACATTTACCTTTTAAGAGGAGGAAT”: the “cleaved RNA product abundance” value was determined as 0.87.

For “CGACATGTCCCGCTTCTTTCATTAATTCGTTAGCAACAGTTTTGCTATATACATTTACCTTTTAAGAGGAGGAAT”, the “cleaved RNA product abundance” value is 0.913.

In the case of “CGACATGTCCCGCTTCTTTCATTAATTCGTTAGCAACTATTTTGCTATATACATTTACCTTTTAAGAGGAGGAAT”, the “cleaved RNA product abundance” value amounted to 1.64.

Turning to “CGACATGTCCCGCTTCTTTCATTAATTCGTTAGCAACTGATTTGCTATATACATTTACCTTTTAAGAGGAGGAAT”, the “cleaved RNA product abundance” value worked out at 0.876.

With “CGACATGTCCCGCTTCTTTCATTAATTCGTTAGCAACTGCTTTGCTATATACATTTACCTTTTAAGAGGAGGAAT”, the “cleaved RNA product abundance” value is 0.6.

With “CGACATGTCCCGCTTCTTTCATTAATTCGTTAGCAACTGTATTGCAATATACATTTACCTTTTAAGAGGAGGAAT”, the “cleaved RNA product abundance” value amounted to 0.329.

For “CGACATGTCCCGCTTCTTTCATTAATTCGTTAGCAACTGTCTTGCTATATACATTTACCTTTTAAGAGGAGGAAT”, the “cleaved RNA product abundance” value stood at 0.981.

On to “CGACATGTCCCGCTTCTTTCATTAATTCGTTAGCAACTGTTATGCTATATACATTTACCTTTTAAGAGGAGGAAT”, for which the “cleaved RNA product abundance” value was 1.05.

As to “CGACATGTCCCGCTTCTTTCATTAATTCGTTAGCAACTGTTTAGCTATATACATTTACCTTTTAAGAGGAGGAAT”, the “cleaved RNA product abundance” value came out at 0.488.

Turning to “CGACATGTCCCGCTTCTTTCATTAATTCGTTAGCAACTGTTTTACTATATACATTTACCTTTTAAGAGGAGGAAT”, the “cleaved RNA product abundance” value was 0.749.

For the sequence “CGACATGTCCCGCTTCTTTCATTAATTCGTTAGCAACTGTTTTCCTATATACATTTACCTTTTAAGAGGAGGAAT”, the “cleaved RNA product abundance” value was determined as 0.485.

“CGACATGTCCCGCTTCTTTCATTAATTCGTTAGCAACTGTTTTGATATATACATTTACCTTTTAAGAGGAGGAAT”: the “cleaved RNA product abundance” value was 0.498.

Regarding “CGACATGTCCCGCTTCTTTCATTAATTCGTTAGCAACTGTTTTGCCATATACATTTACCTTTTAAGAGGAGGAAT”, the “cleaved RNA product abundance” value was 0.237.

Consider “CGACATGTCCCGCTTCTTTCATTAATTCGTTAGCAACTGTTTTGCTAAATACATTTACCTTTTAAGAGGAGGAAT”, for which the “cleaved RNA product abundance” value was found to be 0.362.

With “CGACATGTCCCGCTTCTTTCATTAATTCGTTAGCAACTGTTTTGCTATACACATTTACCTTTTAAGAGGAGGAAT”, the “cleaved RNA product abundance” value was 0.585.

On to “CGACATGTCCCGCTTCTTTCATTAATTCGTTAGCAACTGTTTTGCTATATAAATTTACCTTTTAAGAGGAGGAAT”, for which the “cleaved RNA product abundance” value worked out at 1.12.

With “CGACATGTCCCGCTTCTTTCATTAATTCGTTAGCAACTGTTTTGCTATATACAATTACCTTTTAAGAGGAGGAAT”, the “cleaved RNA product abundance” value came out at 1.18.

For “CGACATGTCCCGCTTCTTTCATTAATTCGTTAGCAACTGTTTTGCTATATACACTTACCTTTTAAGAGGAGGAAT”, the “cleaved RNA product abundance” value was 0.629.

For the sequence “CGACATGTCCCGCTTCTTTCATTAATTCGTTAGCAACTGTTTTGCTATATACATATACCTTTTAAGAGGAGGAAT”, the “cleaved RNA product abundance” value is 0.859.

Take “CGACATGTCCCGCTTCTTTCATTAATTCGTTAGCAACTGTTTTGCTATATACATGTACCTTTTAAGAGGAGGAAT”: the “cleaved RNA product abundance” value was determined as 0.933.

Consider “CGACATGTCCCGCTTCTTTCATTAATTCGTTAGCAACTGTTTTGCTATATACATTTAACTTTTAAGAGGAGGAAT”, for which the “cleaved RNA product abundance” value turned out to be 1.68.

“CGACATGTCCCGCTTCTTTCATTAATTCGTTAGCAACTGTTTTGCTATATACATTTACCATTTAAGAGGAGGAAT”: the “cleaved RNA product abundance” value came to 1.22.

On to “CGACATGTCCCGCTTCTTTCATTAATTCGTTAGCAACTGTTTTGCTATATACATTTACCCTTTAAGAGGAGGAAT”, for which the “cleaved RNA product abundance” value was 0.564.

For “CGACATGTCCCGCTTCTTTCATTAATTCGTTAGCAACTGTTTTGCTATATACATTTACCGTTTAAGAGGAGGAAT”, the “cleaved RNA product abundance” value worked out at 0.591.

As for “CGACATGTCCCGCTTCTTTCATTAATTCGTTAGCAACTGTTTTGCTATATACATTTACCTTTTAAGAGGAGGAAT”, the “cleaved RNA product abundance” value was 1.11.

For the sequence “CGACATGTCCCGCTTCTTTCATTAATTCGTTAGCAACTGTTTTGCTATATACATTTACGTTTTAAGAGGAGGAAT”, the “cleaved RNA product abundance” value stood at 0.881.
